Data on 1 molecule can be found in patent US12590147.

The target in assay [1] is mix of 3 carriers alone (BSA + OVA + KLH) (bovine; keyhole limpet) (UniProt P02769). The experiment in a line: monoclonal phage ELISA, negative control coating with carriers alone, replicate 2. Background: ELISA stands for enzyme-linked immunosorbent assay.
For assay [2] the target is unchanged. Description: monoclonal phage ELISA, negative control coating with carriers alone, replicate 1.

Sequence of mix of 3 carriers alone (BSA + OVA + KLH) (bovine; keyhole limpet) (P02769 25-607, chain 1 of 2): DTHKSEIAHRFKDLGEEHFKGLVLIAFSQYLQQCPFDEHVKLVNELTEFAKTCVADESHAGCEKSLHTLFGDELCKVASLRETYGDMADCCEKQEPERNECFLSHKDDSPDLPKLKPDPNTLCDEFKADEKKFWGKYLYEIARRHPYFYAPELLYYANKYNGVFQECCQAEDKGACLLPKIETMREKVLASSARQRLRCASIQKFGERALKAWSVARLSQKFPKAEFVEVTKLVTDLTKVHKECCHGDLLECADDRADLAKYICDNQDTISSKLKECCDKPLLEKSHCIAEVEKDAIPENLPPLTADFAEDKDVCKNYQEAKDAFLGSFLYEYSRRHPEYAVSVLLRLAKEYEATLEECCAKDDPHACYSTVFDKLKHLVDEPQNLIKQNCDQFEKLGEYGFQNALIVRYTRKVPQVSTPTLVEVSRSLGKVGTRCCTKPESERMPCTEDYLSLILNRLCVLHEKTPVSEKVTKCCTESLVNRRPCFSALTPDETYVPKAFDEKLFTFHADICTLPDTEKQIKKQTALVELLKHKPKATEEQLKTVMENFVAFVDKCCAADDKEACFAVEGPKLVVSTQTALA
Sequence of mix of 3 carriers alone (BSA + OVA + KLH) (bovine; keyhole limpet) (P01012 2-386, chain 2 of 2, further chain): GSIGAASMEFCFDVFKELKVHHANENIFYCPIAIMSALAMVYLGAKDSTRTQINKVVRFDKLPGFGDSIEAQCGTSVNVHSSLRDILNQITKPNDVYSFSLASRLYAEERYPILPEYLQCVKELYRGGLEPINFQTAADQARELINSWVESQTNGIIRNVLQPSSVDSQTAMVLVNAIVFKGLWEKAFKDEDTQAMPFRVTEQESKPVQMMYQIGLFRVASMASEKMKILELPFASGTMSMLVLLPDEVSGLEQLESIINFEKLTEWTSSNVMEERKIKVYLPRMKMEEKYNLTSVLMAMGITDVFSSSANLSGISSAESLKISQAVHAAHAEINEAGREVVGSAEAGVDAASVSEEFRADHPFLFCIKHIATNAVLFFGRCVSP

B1: R4P1-C1 (phage Fab clone) (Fab, V domains shown)
VH: QVQLQQSGPGLVKPSQTLSLTCAISGDSVSSNSAAWNWIRQSPSRGLEWLGRTYYRSKWYNDYAVSVKSRITINPDTSKNQFSLQLNSVTPEDTAVYYCARDDYDPVGMYAFDIWGQGTLVTVSS
VL: LPVLTQPPSASGTPGQRVTISCSGSSSNIGSNTVNWYQQLPGTAPKLLIYRNTQRPSGVPDRFSGSKSGTSASLAISGLQSEDEADYYCEAWDDSMRGAAFGGGTQLTVL
On to B1, for which the ELISA signal in assay [1] and in assay [2] was 0.06 throughout.
